From US20080274129A1 (BIOTECH SYNERGY, published 2008)
Non-standard residues stand in square brackets, D forms with d. No end group written: not given here. Aib = CC(C)(N)C(=O)O

B1: MAGE-3.112I5 (peptide)
peptide: KVAEIVHFL
notes: also called peptide 1352.03
B2: CEA.691H5 (peptide)
peptide: IMIGHLVGV
notes: also called peptide 1352.02
B3: p53.139L2B3 (peptide)
peptide: KL[Aib]PVQLWV
modifications: not fully specified

What was measured:
HLA-A2 supertype alleles = test: peptide binding to purified MHC molecules of the HLA-A2 supertype; count of alleles bound
[1] = target: T1, HLA-A2.1 molecule (purified) (human); test: peptide binding to purified HLA-A2.1 molecule
T1 construct: limits of the heavy chain and presence of b2m in the preparation are not described; also called HLA-A*0201; prototype HLA-A2.1 molecule

Binder | No. A2 Alleles Crossbound (HLA-A2 supertype alleles) [alleles] | binding result [1]
B1 | 5 | binds
B2 | 5 | binds
B3 | 4 | 
